This is an account of results in patent US20040081659.

Data set [1] relates to (4-O)-Ac-(4-trans-L-Hyp)SSChgQ-SL-(dAc)-VIN.
The test system of data set [2] is 4-O-((2-OH)Ac-Abu-SSChgQ-S-P)-dAc-VIN.
For data set [3], the system named is 4-O-(Ac-4-trans-L-HypSSChgQ-SS-4-trans-L-Hyp)-dAc-VIN.
For data set [4], the system named is 4-O-(Ac-4-trans-L-HypSSChgQS-Glycine)-(dAc)-VIN.
Data set [5] relates to 4-O-(Ac-4-trans-L-HypSSChgQSL-lactyl)-(dAc)-VIN.
In data set [6] the test system is 4-O-(Ac-4-trans-L-HypSSChgQSS-Sar)-(dAc)-VIN.
Data set [7] has as its system 4-O-(Ac-4-trans-L-HypSSChgQSV-glycolyl)-VIN.
For data set [8], the system named is 4-O-(Ac-Abu-SSChgQ-SP)-dAc-VIN.
The test system of data set [9] is 4-O-(Ac-SSChgQ-SS-4-trans-L-Hyp)-dAc-VIN.
Data set [10] relates to 4-O-(Ac-SSChgQ-SS-P)-dAc-VIN.
In data set [11] the test system is 4-O-(Ac-SSChgQS-Gly)-(dAc)-VIN.
For data set [12], the system named is Ac-4-trans-L-HypSSChgQ-SChg-(4-O-lactyl)-dAc-VIN.
For data set [13], the system named is Ac-4-trans-L-HypSSChgQS-(4-O-Ala)-(dAc)-VIN.
Data set [14] has as its system Ac-4-trans-L-HypSSChgQSChg-(4-O-glycolyl)-VIN.
For data set [15], the system named is Ac-4-trans-L-HypSSChgQSS-(4-O-Sar)-(dAc)-VIN.
Data set [16] has as its system Ac-AbuSSChgQ-S(dS)-(4-O-P)-dAc-VIN.
The subject of data set [17] is Ac-AbuSSChgQ-SS-(4-O-P)-dAc-VIN.
The test system of data set [18] is des-Acetylvinblastine-4-O-(N-Acetyl-4-trans-L-Hyp-Ser-Ser-Chg-Gln-Ser-Ser-Pro) ester.

In the case of free prostate specific antigen (PSA), the Time to 50% Substrate Cleavage by York PSA in data set [1] was 35 min; in data set [2], 110 min; in data set [3], 13 min; in data set [4] it was 30 min; in [5], 10 min; in [6], 32 min. Also, the Time to 50% Substrate Cleavage by York PSA in data set [7] turned out to be 8 min; in data set [8] it was 80 min; in [9], 22 min; in [10] it was 15 min; in data set [11] it was 55 min; in data set [12], 14 min. Moreover, the Time to 50% Substrate Cleavage by York PSA in data set [14] is 12 min; in [15] it was 15 min; in data set [16] it was 60 min; in [17], 7 min; in data set [18], 17 min. For the same substance, in [13], the “Time to 50% Substrate Cleavage by York PSA (Min)” value is listed as 23 (prod converts to 4-O-A-dAc-VIN).
